Where two headings read alike, the source gives them in different places.
Columns and labels:
[1] = water/1-octanol partition coefficients (logD) of 68Ga-labeled compounds, γ-counting; type: physicochemical; conditions: pH 7.4
Protocol: The mixtures were vigorously shaken for 5 min on a vibrating plate. After subsequent centrifugation at 13,000 rpm for 5 min, 125 µL was taken from each phase and measured in a γ-counter. The logD values were calculated from three or four independent experiments, each performed in triplicate. For 18, the logD was determined by semipreparative HPLC. For this purpose, a solution of 18 (10 µL, c = 5 × 10^−4 mol/L) in water was added to a mixture of 1 mL 1-octanol and 990 µL phosphate buffered solution (0.05 M, pH 7.4) and vigorously shaken for 5 min. After centrifugation, the phases were separated and both phases were analyzed by semipreparative HPLC and the peaks of the UV signals at 214 nm were integrated. The logD was determined by three separate measurements, each experiment performed in triplicate.

[2] = photophysical properties (absorbance and emission measurements); type: physicochemical; conditions: for λmax(em): excitation wavelength λex = 650 nm
Protocol: Finally, the photophysical properties were determined for dyes, MIS and their conjugates. It could be shown that the photophysical properties remained largely unaltered, including absorption coefficients and emission characteristics (Table 1). […] The only change in photophysical properties we qualitatively observed was an increase in the quantum yields of the dye conjugates compared to their unconjugated leads 1–3, an effect that was described before and can be attributed to the conjugation of sterically demanding groups (such as the PESIN homodimers used here), resulting in a decrease in aggregation of the dye molecules and thus a reduced fluorescence quenching. γ-Counting was performed using a 2480 Wizard gamma counter system from Perkin Elmer. A Cary 100 Bio system (Varian) was used to record the UV/Vis-Spectra together with 4 mL PMMA cuvettes from Sigma-Aldrich. Furthermore, for absorbance and emission measurements, a Tecan Infinite M200 Microplate reader together with a Nunc Micro-Well 96 solid plate from ThermoFisher was used.

Work on `CC1(C)C(/C=C/C2=C(c3ccc(C(=O)NCCCC[C@H](NC(=O)CC[C@H](C(=O)O)N4CCN(CC(=O)O)CCN(CC(=O)O)CC4)C(=O)N[C@@H](CS)C(N)=O)cc3)C(=C/C=C3/N(CCCCS(=O)(=O)[O-])c4ccc5ccccc5c4C3(C)C)/CCC2)=[N+](CCCCS(=O)(=O)O)c2ccc3ccccc3c21` (single isomer, unassigned) [[68Ga]Ga-10, metal not drawn] yielded a logD [1] of -1.29 ± 0.11.

In the case of `CC1(C)C(=CC=C2CCCC(C=CC3=[N+](CCCCS(=O)(=O)[O-])c4ccc(C(=O)NCCCC[C@H](NC(=O)CC[C@H](C(=O)O)N5CCN(CC(=O)O)CCN(CC(=O)O)CC5)C(=O)N[C@@H](CS)C(N)=O)cc4C3(C)C)=C2c2ccccc2)N(CCCCS(=O)(=O)O)c2ccc(S(=O)(=O)O)cc21` (single isomer, unassigned) [[68Ga]Ga-11, metal not drawn], the logD [1] is reported as -3.05 ± 0.08.

`CC1(C)C(=CC=C2CCCC(C=CC3=[N+](CCCCS(=O)(=O)[O-])c4ccc(S(=O)(=O)O)cc4C3(C)C)=C2c2ccc(CCC(=O)NCCCC[C@H](NC(=O)CC[C@H](C(=O)O)N3CCN(CC(=O)O)CCN(CC(=O)O)CC3)C(=O)N[C@@H](CS)C(N)=O)cc2)N(CCCCS(=O)(=O)O)c2ccc(S(=O)(=O)O)cc21` (single isomer, unassigned) [[68Ga]Ga-12, metal not drawn] gave a logD [1] of -3.47 ± 0.17.

`CC1(C)C(/C=C/C2=C(c3ccc(C(=O)NCCCC[C@H](NC(=O)CC[C@H](C(=O)O)N4CCN(CC(=O)O)CCN(CC(=O)O)CC4)C(=O)N[C@@H](CS)C(N)=O)cc3)C(=C/C=C3/N(CCCCS(=O)(=O)[O-])c4ccc5ccccc5c4C3(C)C)/CCC2)=[N+](CCCCS(=O)(=O)O)c2ccc3ccccc3c21` [Compound 10] showed a logD [1] of −1.29 ± 0.11.

`CC1(C)C(=CC=C2CCCC(C=CC3=[N+](CCCCS(=O)(=O)[O-])c4ccc(C(=O)NCCCC[C@H](NC(=O)CC[C@H](C(=O)O)N5CCN(CC(=O)O)CCN(CC(=O)O)CC5)C(=O)N[C@@H](CS)C(N)=O)cc4C3(C)C)=C2c2ccccc2)N(CCCCS(=O)(=O)O)c2ccc(S(=O)(=O)O)cc21` [Compound 11] showed a logD [1] of −3.05 ± 0.08.

`CC1(C)C(=CC=C2CCCC(C=CC3=[N+](CCCCS(=O)(=O)[O-])c4ccc(S(=O)(=O)O)cc4C3(C)C)=C2c2ccc(CCC(=O)NCCCC[C@H](NC(=O)CC[C@H](C(=O)O)N3CCN(CC(=O)O)CCN(CC(=O)O)CC3)C(=O)N[C@@H](CS)C(N)=O)cc2)N(CCCCS(=O)(=O)O)c2ccc(S(=O)(=O)O)cc21` [Compound 12] showed a logD [1] of −3.47 ± 0.17.

For `CSCC[C@H](NC(=O)[C@H](CC(C)C)NC(=O)[C@H](Cc1c[nH]cn1)NC(=O)CNC(=O)[C@@H](NC(=O)[C@H](C)NC(=O)[C@H](Cc1c[nH]c2ccccc12)NC(=O)[C@H](CCC(N)=O)NC(=O)CCOCCOCCOCCOCCNC(=O)CON=Cc1ccc(C(=O)NCCCN(CCCNC(=O)c2ccc(C=NOCC(=O)NCCOCCOCCOCCOCCC(=O)N[C@@H](CCC(N)=O)C(=O)N[C@@H](Cc3c[nH]c4ccccc34)C(=O)N[C@@H](C)C(=O)N[C@H](C(=O)NCC(=O)N[C@@H](Cc3c[nH]cn3)C(=O)N[C@@H](CC(C)C)C(=O)N[C@@H](CCSC)C(N)=O)C(C)C)cc2)CC(=O)N[C@H](CSC2CC(=O)N(CCN3C(=O)CC(SC[C@H](NC(=O)[C@H](CCCCNC(=O)c4ccc(C5=C(C=CC6=[N+](CCCCS(=O)(=O)[O-])c7ccc8ccccc8c7C6(C)C)CCCC5=CC=C5N(CCCCS(=O)(=O)O)c6ccc7ccccc7c6C5(C)C)cc4)NC(=O)CC[C@H](C(=O)O)N4CCN(CC(=O)O)CCN(CC(=O)O)CC4)C(N)=O)C3=O)C2=O)C(=O)NCCOCCOCC(N)=O)cc1)C(C)C)C(N)=O` (stereo partly drawn) [Compound 14], the “Stokes Shift” value [2] was 10 nm, the “λmax(abs)” value [2] was 735/810 and the “λmax(em)” value [2] was 820 nm.

For `CSCC[C@H](NC(=O)[C@H](CC(C)C)NC(=O)[C@H](Cc1c[nH]cn1)NC(=O)CNC(=O)[C@@H](NC(=O)[C@H](C)NC(=O)[C@H](Cc1c[nH]c2ccccc12)NC(=O)[C@H](CCC(N)=O)NC(=O)CCOCCOCCOCCOCCNC(=O)CON=Cc1ccc(C(=O)NCCCN(CCCNC(=O)c2ccc(C=NOCC(=O)NCCOCCOCCOCCOCCC(=O)N[C@@H](CCC(N)=O)C(=O)N[C@@H](Cc3c[nH]c4ccccc34)C(=O)N[C@@H](C)C(=O)N[C@H](C(=O)NCC(=O)N[C@@H](Cc3c[nH]cn3)C(=O)N[C@@H](CC(C)C)C(=O)N[C@@H](CCSC)C(N)=O)C(C)C)cc2)CC(=O)N[C@H](CSC2CC(=O)N(CCN3C(=O)CC(SC[C@H](NC(=O)[C@H](CCCCNC(=O)c4ccc5c(c4)C(C)(C)C(C=CC4=C(c6ccccc6)C(=CC=C6N(CCCCS(=O)(=O)O)c7ccc(S(=O)(=O)O)cc7C6(C)C)CCC4)=[N+]5CCCCS(=O)(=O)[O-])NC(=O)CC[C@H](C(=O)O)N4CCN(CC(=O)O)CCN(CC(=O)O)CC4)C(N)=O)C3=O)C2=O)C(=O)NCCOCCOCC(N)=O)cc1)C(C)C)C(N)=O` (stereo partly drawn) [Compound 15], the “Stokes Shift” value [2] was 30 nm, the “λmax(abs)” value [2] was 705/770 and the “λmax(em)” value [2] was 800 nm.

With `CSCC[C@H](NC(=O)[C@H](CC(C)C)NC(=O)[C@H](Cc1c[nH]cn1)NC(=O)CNC(=O)[C@@H](NC(=O)[C@H](C)NC(=O)[C@H](Cc1c[nH]c2ccccc12)NC(=O)[C@H](CCC(N)=O)NC(=O)CCOCCOCCOCCOCCNC(=O)CON=Cc1ccc(C(=O)NCCCN(CCCNC(=O)c2ccc(C=NOCC(=O)NCCOCCOCCOCCOCCC(=O)N[C@@H](CCC(N)=O)C(=O)N[C@@H](Cc3c[nH]c4ccccc34)C(=O)N[C@@H](C)C(=O)N[C@H](C(=O)NCC(=O)N[C@@H](Cc3c[nH]cn3)C(=O)N[C@@H](CC(C)C)C(=O)N[C@@H](CCSC)C(N)=O)C(C)C)cc2)CC(=O)N[C@H](CSC2CC(=O)N(CCN3C(=O)CC(SC[C@H](NC(=O)[C@H](CCCCNC(=O)CCc4ccc(C5=C(C=CC6=[N+](CCCCS(=O)(=O)[O-])c7ccc(S(=O)(=O)O)cc7C6(C)C)CCCC5=CC=C5N(CCCCS(=O)(=O)O)c6ccc(S(=O)(=O)O)cc6C5(C)C)cc4)NC(=O)CC[C@H](C(=O)O)N4CCN(CC(=O)O)CCN(CC(=O)O)CC4)C(N)=O)C3=O)C2=O)C(=O)NCCOCCOCC(N)=O)cc1)C(C)C)C(N)=O` (stereo partly drawn) [Compound 16] the “Stokes Shift” value [2] was 20 nm, the “λmax(abs)” value [2] was 700/770 and the “λmax(em)” value [2] was 790 nm.

`NC(=O)C(CS)NC(=O)CNC(=O)CCC(C(=O)O)N1CCN(CC(=O)O)CCN(CC(=O)O)CC1` (stereo not drawn) [Compound 19, NH2-Cys-Gly-NODA-GA] showed a logD ([1]; 68Ga-labeled compound, 1-octanol / phosphate buffer 0.05 M, read-out: logD) of -3.35 ± 0.15.

With `CSCC[C@H](NC(=O)[C@H](CC(C)C)NC(=O)[C@H](Cc1c[nH]cn1)NC(=O)CNC(=O)[C@@H](NC(=O)[C@H](C)NC(=O)[C@H](Cc1c[nH]c2ccccc12)NC(=O)[C@H](CCC(N)=O)NC(=O)CCOCCOCCOCCOCCNC(=O)CON=Cc1ccc(C(=O)NCCCN(CCCNC(=O)c2ccc(C=NOCC(=O)NCCOCCOCCOCCOCCC(=O)N[C@@H](CCC(N)=O)C(=O)N[C@@H](Cc3c[nH]c4ccccc34)C(=O)N[C@@H](C)C(=O)N[C@H](C(=O)NCC(=O)N[C@@H](Cc3c[nH]cn3)C(=O)N[C@@H](CC(C)C)C(=O)N[C@@H](CCSC)C(N)=O)C(C)C)cc2)CC(=O)N[C@H](CSC2CC(=O)N(CCN3C(=O)CC(SC[C@H](NC(=O)[C@H](CCCCNC(=O)c4ccc(C5=C(C=CC6=[N+](CCCCS(=O)(=O)[O-])c7ccc8ccccc8c7C6(C)C)CCCC5=CC=C5N(CCCCS(=O)(=O)O)c6ccc7ccccc7c6C5(C)C)cc4)NC(=O)CC[C@H](C(=O)O)N4CCN(CC(=O)O)CCN(CC(=O)O)CC4)C(N)=O)C3=O)C2=O)C(=O)NCCOCCOCC(N)=O)cc1)C(C)C)C(N)=O` (stereo partly drawn) [[68Ga]Ga-14, metal not drawn] the logD [1] was -1.33 ± 0.04.

`CSCC[C@H](NC(=O)[C@H](CC(C)C)NC(=O)[C@H](Cc1c[nH]cn1)NC(=O)CNC(=O)[C@@H](NC(=O)[C@H](C)NC(=O)[C@H](Cc1c[nH]c2ccccc12)NC(=O)[C@H](CCC(N)=O)NC(=O)CCOCCOCCOCCOCCNC(=O)CON=Cc1ccc(C(=O)NCCCN(CCCNC(=O)c2ccc(C=NOCC(=O)NCCOCCOCCOCCOCCC(=O)N[C@@H](CCC(N)=O)C(=O)N[C@@H](Cc3c[nH]c4ccccc34)C(=O)N[C@@H](C)C(=O)N[C@H](C(=O)NCC(=O)N[C@@H](Cc3c[nH]cn3)C(=O)N[C@@H](CC(C)C)C(=O)N[C@@H](CCSC)C(N)=O)C(C)C)cc2)CC(=O)N[C@H](CSC2CC(=O)N(CCN3C(=O)CC(SC[C@H](NC(=O)[C@H](CCCCNC(=O)c4ccc5c(c4)C(C)(C)C(C=CC4=C(c6ccccc6)C(=CC=C6N(CCCCS(=O)(=O)O)c7ccc(S(=O)(=O)O)cc7C6(C)C)CCC4)=[N+]5CCCCS(=O)(=O)[O-])NC(=O)CC[C@H](C(=O)O)N4CCN(CC(=O)O)CCN(CC(=O)O)CC4)C(N)=O)C3=O)C2=O)C(=O)NCCOCCOCC(N)=O)cc1)C(C)C)C(N)=O` (stereo partly drawn) [[68Ga]Ga-15, metal not drawn] gave a logD [1] of -2.48 ± 0.14.

From publication PMC7558102, “Hybrid Multimodal Imaging Synthons for Chemoselective and Efficient Biomolecule Modification with Chelator and Near-Infrared Fluorescent Cyanine Dye” (Pharmaceuticals, 2020)
